{"source": "paper PMC3207290", "about": "(The Journal of Cell Biology, 2011)", "binders": {"B1": {"name": "bovine GRK5-Flag (enzyme)", "chain": "MELENIVANTVLLKAREGGGGKRKGKSKKWKEILKFPHINQCEDLRRTIDRDYCSLCDKQPVGRLLFRQFCETRPGLESYIQFLDSVAEYEVTPDEKLGEKGKEIMTKYLTPKSPVFITQVGRDLVSQTEEKLLQKPCKELFSACVQSVHDYLRGEPFHEYLDSMYFDRFLQWKWLERQPVTKNTFRQYRVLGKGGFGEVCACQVRATGKMYACKRLEKKRIKKRKGESMALNEKQILEKVNSRFVVNLAYAYETKDALCLVLTIMNGGDLKFHIYNMGNPGFEEERALFYAAEILCGLEDLHHENIVYRDLKPENILLDDYGHIRISDLGLAVKIPEGDLIRGRVGTVGYMAPEVLNNQRYGLSPDYWGLGCLIYEMIEGQSPFRGRKEKVKREEVDRRVLETEEVYSHKFSEEAKSICKMLLTKDAKQRLGCQEEGAAEVKRHPFFRNMNFKRLEAGMLDPPFVPDPRAVYCKDVLDIEQFSTVKGVNLDHTDDDFYSKFSTGSVPIPWQSEMIETECFKELNVFGPHGTLSPDLNRSHPPEPPKKGLLQRLFKRQHQNNSKSSPNSKTSFNHHINSNHVSSNSTGSS"}}, "molecular_target": "F-actin (polymerized rabbit muscle G-actin) (rabbit, UniProt P68135 1-377)", "test": "co-sedimentation", "data": [{"binder": "B1", "values": [{"measurement": "Kd", "result": "809 ± 245", "unit": "nM"}]}]}
